Reference: the supplement of paper PMC7125110
± gives the standard error. Variants at the floor of the assay were thinned out.

B1: glmS ribozyme (parent)
chain: AUAAAAGCGCCAGAACUACAGAAAUGUAGUUGACGAGGAGGAGGUUUAUCGAAUUUUCGGCGGAUGCCUCCAAA

Experiments:
Details in all cases: with glucosamine-6-phosphate
glucosamine-6-phosphate [1] = variants of: B1; experiment: self-cleavage kobs at 40 uM GlcN6P; higher = faster cleavage; RNA array
Outline: (§1)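 Barcoded ribozyme variants, transcribed in situ by E. coli RNA polymerase on sequenced MiSeq chips, were followed via a hybridised Cy3 probe at 37 °C. Glucosamine-6-phosphate ranged from 40 μM to 10 mM in HEPES/KCl/Mg(OAc)2 buffer. kobs came from decay fits to per-tile medians, and kcat and KM from weighted Michaelis–Menten fits.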

glucosamine-6-phosphate [2] = variants of: B1; experiment: self-cleavage kobs at 160 uM GlcN6P; higher = faster cleavage; RNA array
Outline: as §1

glucosamine-6-phosphate [3] = variants of: B1; experiment: self-cleavage kobs at 2500 uM GlcN6P; higher = faster cleavage; RNA array
Outline: as §1

glucosamine-6-phosphate [4] = variants of: B1; experiment: self-cleavage kobs at 10000 uM GlcN6P; higher = faster cleavage; RNA array
Outline: as §1

glucosamine-6-phosphate [5] = variants of: B1; experiment: self-cleavage kobs at 640 uM GlcN6P; higher = faster cleavage; RNA array
Outline: as §1

Row | Variant | self-cleavage kobs at 40 uM GlcN6P (glucosamine-6-phosphate [1]) [s⁻¹] | self-cleavage kobs at 160 uM GlcN6P (glucosamine-6-phosphate [2]) [s⁻¹] | self-cleavage kobs at 2500 uM GlcN6P (glucosamine-6-phosphate [3]) [s⁻¹] | self-cleavage kobs at 10000 uM GlcN6P (glucosamine-6-phosphate [4]) [s⁻¹] | self-cleavage kobs at 640 uM GlcN6P (glucosamine-6-phosphate [5]) [s⁻¹]
1 | C8G G41A | < 1e-05 | < 1e-05 | < 1e-05 | < 1e-05 | –
2 | C8A G9A A33U | < 1e-05 | – | – | – | –
3 | C8G C11G U30C C34G G44U G62A | < 1e-05 | – | – | < 1e-05 | –
4 | C8G G32A G59U | < 1e-05 | – | < 1e-05 | < 1e-05 | –
5 | C8U A12G C50U C68G | 3.9e-05 ± 1.6e-05 | 0.000221 ± 8.4e-05 | 0.000476 ± 0.00018 | 6.84e-05 ± 1.7e-05 | 0.00022 ± 8.6e-05
6 | C8A G29U C50U G51U C68G | 6.11e-05 ± 2.7e-05 | – | – | – | –
7 | C8A G44C C70A | < 1e-05 | – | – | < 1e-05 | –
8 | C8A U47C C58G G66U | < 1e-05 | – | < 1e-05 | < 1e-05 | –
9 | C8A G60U | < 1e-05 | < 1e-05 | < 1e-05 | – | < 1e-05
10 | C8A U31C G40A A42C U65A G66A | < 1e-05 | – | – | – | –
11 | C8A G66U | < 1e-05 | < 1e-05 | < 1e-05 | – | –
12 | C8U A14U G29C U46A G51A | < 1e-05 | – | – | < 1e-05 | –
13 | C8G G37U G41C U56A | < 1e-05 | – | < 1e-05 | – | –
14 | C8G G59U | < 1e-05 | < 1e-05 | < 1e-05 | – | < 1e-05
15 | C8A U25C G37U U69G | 0.000134 ± 3.6e-05 | – | – | – | 0.000488 ± 0.00011
16 | C8A G40C | < 1e-05 | < 1e-05 | < 1e-05 | < 1e-05 | < 1e-05
17 | C8G G32U C34A | < 1e-05 | – | – | – | –
18 | C8A C58U | < 1e-05 | < 1e-05 | < 1e-05 | < 1e-05 | < 1e-05
19 | C8A C34U U47C C67U | < 1e-05 | – | – | < 1e-05 | –
20 | C8A U31G | < 1e-05 | < 1e-05 | < 1e-05 | < 1e-05 | < 1e-05
21 | C8A A42U G62U | < 1e-05 | – | < 1e-05 | – | –
22 | C8G G37C | < 1e-05 | – | – | < 1e-05 | < 1e-05
23 | C8A U49A | < 1e-05 | – | – | – | < 1e-05
24 | C8G C67A | < 1e-05 | < 1e-05 | < 1e-05 | < 1e-05 | < 1e-05

Row | Variant | self-cleavage kobs at 40 uM GlcN6P (glucosamine-6-phosphate [1]) [s⁻¹] | self-cleavage kobs at 160 uM GlcN6P (glucosamine-6-phosphate [2]) [s⁻¹] | self-cleavage kobs at 2500 uM GlcN6P (glucosamine-6-phosphate [3]) [s⁻¹] | self-cleavage kobs at 10000 uM GlcN6P (glucosamine-6-phosphate [4]) [s⁻¹] | self-cleavage kobs at 640 uM GlcN6P (glucosamine-6-phosphate [5]) [s⁻¹]
25 | C8G C50G C67A | 0.000144 ± 2.5e-05 | – | – | 0.000113 ± 1.8e-05 | –
26 | C8G G9C C16A G38A G40U U49G U57C | < 1e-05 | – | – | < 1e-05 | –
27 | C8A C50G | 5.03e-05 ± 1.7e-05 | 0.000112 ± 3.3e-05 | 9.84e-05 ± 2.6e-05 | – | 0.00101 ± 0.00048
28 | C8A C68G | 0.000368 ± 0.00014 | – | – | – | –
29 | C8U A12U A33C G59U C67G U69G | < 1e-05 | – | < 1e-05 | < 1e-05 | –
30 | C8A U46A | < 1e-05 | < 1e-05 | < 1e-05 | < 1e-05 | < 1e-05
31 | C8U C11G C50U U56C U69G | 4.97e-05 ± 2.2e-05 | – | – | – | –
32 | C8G G9C U55A | < 1e-05 | – | < 1e-05 | < 1e-05 | < 1e-05
33 | C8A U49A G51A | < 1e-05 | – | – | < 1e-05 | –
34 | C8U C11U U57G C67G | 0.000617 ± 0.0003 | – | – | 0.000608 ± 0.00023 | 7.99e-05 ± 3.8e-05
35 | C8A C10G | < 1e-05 | < 1e-05 | < 1e-05 | < 1e-05 | < 1e-05
36 | C8U A39C G41A A42C C58G A64G G66A | < 1e-05 | – | – | < 1e-05 | –
37 | C8A G13U G41C U55C U65A U69G | < 1e-05 | – | – | – | –
38 | C8G U30A U31C | < 1e-05 | – | – | < 1e-05 | –
39 | C8G U31A G41C | < 1e-05 | – | – | – | –
40 | C8A C11G U46G | < 1e-05 | – | – | < 1e-05 | –
41 | C8G A15C | < 1e-05 | < 1e-05 | < 1e-05 | < 1e-05 | < 1e-05
42 | C8G C61U G66A C70U | < 1e-05 | – | – | – | –
43 | C8G C34A A53C G60C | < 1e-05 | < 1e-05 | < 1e-05 | – | < 1e-05
44 | C8U A64C | < 1e-05 | < 1e-05 | < 1e-05 | – | < 1e-05
45 | C8U A64U | < 1e-05 | < 1e-05 | < 1e-05 | < 1e-05 | < 1e-05
46 | C8A U47G | < 1e-05 | – | – | – | –
47 | C8U A33G | < 1e-05 | < 1e-05 | – | < 1e-05 | < 1e-05
